Reference: paper PMC2115787
Read-outs that look alike come from different tables or passages of the source.

Columns and labels:
Assay in all cases: light chain exchange into myosin
[1] = biological target: myosin from adult White Rock chicken pectoralis muscle (chicken) (UniProt P02609)
[2] = biological target: myosin from adult White Rock chicken pectoralis muscle (chicken) (UniProt P02609); remark: listed apart in the source
[3] = biological target: myosin from adult White Rock chicken pectoralis muscle (chicken) (UniProt P02609); remark: listed apart in the source
[4] = biological target: myosin from adult White Rock chicken pectoralis muscle (chicken) (UniProt P02609); remark: listed apart in the source

percent exchange [1]: 49%
percent exchange [2]: 84%
percent exchange [3]: 7%
percent exchange [4]: 26%
Substance: regulatory light chain LC2 singly labeled with fluorescein at Cys 125 (from UniProt P02609 1-168) (natural protein)
